This data set relates to MS2 coat protein. The data set is described as follows: apparent KD of MS2 coat protein; designed switch direction (-1 OFF switch, 1 ON switch): 1; higher = weaker reporter binding. The essentials:
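Designed RNA switches were transcribed on Illumina chips by stalled E. coli RNA polymerase and titrated with SNAP-549-labelled MS2 coat protein from 0.7 or 1.5 nM, doubling to 3 µM. Step length ran from 0.8–1.5 h at the lowest concentration to 10–20 min at the highest. The apparent KD is the median over clusters for each design, from curve-fitted normalised cluster fluorescence.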

The mark [1] stands for this setting: input ligand: microRNA oligo, concentration not stated.
Setting [2] is: Eterna round: R95, input ligand: FMN 200 uM.
[3] abbreviates: Eterna round: R95, input ligand: microRNA oligo, concentration not stated.
The mark [4] stands for this setting: Eterna round: R95, input ligand: none.

The source of these data is the supplement of paper PMC9170038.

Consider “AAGAAACAUGAGGAUCACCCAUGUGUAAAUAUGGGAGGAUAUACAAGGACGUAAGUCAAGGUAGAAGGCCUAAGAA [Mat - Same State 1 - Meechl mod - D137] (Eterna round: R96, puzzle: Same State 1)”, for which the “apparent KD of MS2 coat protein” value runs as follows: (input ligand: FMN 200 uM) 0.031 µM; under setting [1], 0.155 µM; (input ligand: none) 0.234 µM.
For the sequence “AAGAGAGAAAUACAGGAUAUGAGGAGAGGAACAUGAGGAUCACCCAUGUGAGAGAAAGGGAAGAAUCAGAAGGGUAGAGAAGAGA [JR_SS2_Sub002] (puzzle: Same State 2)”, the “apparent KD of MS2 coat protein” value under setting [2] came out at 0.0318 µM, the “apparent KD of MS2 coat protein” value under setting [3] worked out at 0.047 µM and the “apparent KD of MS2 coat protein” value under setting [4] was found to be 0.0738 µM.
With “AAGGAAUGAGCGUAGGAUAUAGGAGAAGUGACAUGAGGAUCACCCAUGUAAAAGGAGGGAUGAGACUAGAAGGACGAGGUAGGAG [JR_SS2_Sub058] (puzzle: Same State 2)”, the “apparent KD of MS2 coat protein” value under setting [2] turned out to be 0.0579 µM, the “apparent KD of MS2 coat protein” value under setting [3] worked out at 0.0533 µM and the “apparent KD of MS2 coat protein” value under setting [4] was 0.0818 µM.
For “AAGGGCGGAAACGACAUGAGGAUCACCCAUGUUGCCGAAAGGCAGGAUAUCCGGCGAAAGCAGAAGGAGAAGGGUCAAGAACCA [AK SSNG3-V2-43] (Eterna round: R96, puzzle: Same State NG 3)”, the “apparent KD of MS2 coat protein” value is, setting by setting: (input ligand: FMN 200 uM) 0.0389 µM; under setting [1], 0.0247 µM; (input ligand: none) 0.0438 µM.
For the sequence “AAGGUCAAGAUAGGAUAUGUUUCAUGAUAGAUAACAGAAGGAUCUAGAACAUGAGGAUCACCCAUGUGGCACAUAGAGUGGUGA [Default title] (Eterna round: R96, puzzle: Same State NG 1)”, the “apparent KD of MS2 coat protein” value under setting [1] came out at 0.284 µM.
For “AAGUAGGAGUUACAGGAUAUAUGGAGAAGGACAUGAGGAUCACCCAUGUGAGAGAUGAGAGGAAGAUAGAAGGGUAAGGGAGUAA [JR_SS2_Sub026] (puzzle: Same State 2)”, the “apparent KD of MS2 coat protein” value stood at 0.044 µM under setting [2], 0.0414 µM under setting [3] and 0.0772 µM under setting [4].
Take “AAGUAGUGGUCAGGAUAUCAAAUCAUUGCAUCACGAUACAUGAGGAUCACCCAUGUCCCAAAAUAUGAGAAGGGACUCACACGG [Eternabot solution 45] (Eterna round: R96, puzzle: Same State NG 2)”: the “apparent KD of MS2 coat protein” value amounted to 0.279 µM (input ligand: FMN 200 uM), 0.0901 µM under setting [1] and 0.186 µM (input ligand: none).
Consider “AAGUUACUAUCUCAGGAUAUCAUGUCAAAGACAUGAGGAUCACCCAUGUACCAGGAAACUGGUUAUGAGAAGGGAGAUAGUAACA [Mat - Same State 2 - Mod - D50] (puzzle: Same State 2)”, for which the “apparent KD of MS2 coat protein” value is, setting by setting: under setting [2], 0.143 µM; under setting [3], 0.134 µM; under setting [4], 1.4 µM.
The corresponding values for “AAUAAACAUGAGGAUCACCCAUGUGCAACGCGUCAAGGAUAUGCAUCAAACACGCCUUGAGCAGAAGGUGACCGGA [Ladiis] (puzzle: Same State 1)” are 0.245 µM, 0.0417 µM and 0.0167 µM.
The corresponding values for “AAUCAACAUGAGGAUCACCCAUGUCACACAAAGUGAGGAUAUUGGAAAUAAAUAAUAAAACGAGAAGGCGCUGCGG [OBB] (puzzle: Same State 1)” are 0.0266 µM, 0.0445 µM and 0.06 µM.
For “AAUCCUGUCACAGGAUAUCCGAGGGCAACCCUCGGAGAAGGGUGAUAGUCUAACAAACACACACAUGAGGAUCACCCAUGUUAA [Sogece] (Eterna round: R96, puzzle: Same State NG 1)”, the “apparent KD of MS2 coat protein” value is 0.0769 µM (input ligand: FMN 200 uM), 0.113 µM under setting [1] and 0.133 µM (input ligand: none).
In the same order, the values of “AAUCCUGUCACAGGAUAUCCGAGGUCAACCCUCGGAGAAGGGUGAUAGUCUAACAAACACACACAUGAGGAUCACCCAUGUUAA [Bigeceaor] (Eterna round: R96, puzzle: Same State NG 1)” are 0.0431 µM, 0.0616 µM and 0.0792 µM.
Consider “AAUCGUUUGAUAGGAUAUCGCUAUACAUGAGGAUCACCCAUGUUUACCACGCUGGUUUUUCAUACCGAGAAGGAUUCUGAUGAA [salish99_SSNG02_r04_003] (Eterna round: R96, puzzle: Same State NG 2)”, for which the “apparent KD of MS2 coat protein” value is, setting by setting: (input ligand: FMN 200 uM) 0.0315 µM; under setting [1], 0.0271 µM; (input ligand: none) 0.0334 µM.
For “AAUCGUUUGAUAGGAUAUCGCUAUACAUGAGGAUCACCCAUGUUUACCACGCUGGUUUUUCAUACCGAGAAGGAUUCUGAUGAG [salish99_SSNG02_r04_001] (Eterna round: R96, puzzle: Same State NG 2)”, the “apparent KD of MS2 coat protein” value came to 0.0721 µM (input ligand: FMN 200 uM), 0.0457 µM under setting [1] and 0.0534 µM (input ligand: none).
In the same order, the values of “AAUCGUUUGAUAGGAUAUCGCUAUACAUGAGGAUCACCCAUGUUUACCACGCUGGUUUUUCAUACCGAGAAGGAUUCUGAUGAU [JL JR sub007 mod 10] (Eterna round: R96, puzzle: Same State NG 2)” are 0.036 µM, 0.0312 µM and 0.0352 µM.
On to “AAUUAAGAUCAAGGAUAUCACGUCGAAUAGACGUGAGAAGGUGAUCCAUACAUGAGGAUCACCCAUGUAUAACAUGAAUUAAUU [SSNG1/8-B1] (Eterna round: R96, puzzle: Same State NG 1)”, for which the “apparent KD of MS2 coat protein” value under setting [1] is 0.607 µM.
Take “AAUUAAGAUUAAGGAUAUCACGUCGAAUAGACGUGAGAAGGUGAUCAUAACAUGAGGAUCACCCAUGUAUUACAUGAAUUAAUU [SSNG1/3-B1] (Eterna round: R96, puzzle: Same State NG 1)”: the “apparent KD of MS2 coat protein” value (input ligand: FMN 200 uM) was 0.873 µM, the “apparent KD of MS2 coat protein” value under setting [1] came out at 0.218 µM and the “apparent KD of MS2 coat protein” value (input ligand: none) came to 0.498 µM.
Consider “AAUUAAGAUUAAGGAUAUCACGUCGAUUAGACGUGAGAAGGUGAUCAUAACAUGAGGAUCACCCAUGUAUUACAUGAAUUAAUU [SSNG1/3-B2] (Eterna round: R96, puzzle: Same State NG 1)”, for which the “apparent KD of MS2 coat protein” value is 0.132 µM (input ligand: FMN 200 uM), 0.113 µM under setting [1] and 0.118 µM (input ligand: none).
In the same order, the values of “AAUUAAGAUUGAGGAUAUCACGUCGUUUAGACGUGAGAAGGCGAUCAUAACAUGAGGAUCACCCAUGUAUUACAUGAAUUAAUU [SSNG1/5-B3] (Eterna round: R96, puzzle: Same State NG 1)” are 0.0178 µM, 0.02 µM and 0.034 µM.
With “AAUUAAUUAAUACAUGAGGAUCACCCAUGUAAUUAUUAGAUCUAGGAUAUCAGCUCGAUUAGAGCUGAGAAGGAGAUCACAUGU [SSNG3/18-B2] (Eterna round: R96, puzzle: Same State NG 3)”, under setting [1], the “apparent KD of MS2 coat protein” value was determined as 0.0136 µM.
The same measure, in the same setting: for “AAUUAAUUAAUUAAGUACAUGAGGAUCACCCAUGUAAGUGAUCAGGAUAUCAGCUCGAUUAGAGCUGAGAAGGGAUCCAUGUAC [SSNG3/15-A2] (Eterna round: R96, puzzle: Same State NG 3)” the value was 0.4 µM.
As to “AAUUAAUUAAUUAAUAUACAUGAGGAUCACCCAUGUAAGAUCAAGGAUAUCAGCUCGUGUAGAGCUGAGAAGGUGAUCACAUGU [SSNG3/16-A4] (Eterna round: R96, puzzle: Same State NG 3)”, the “apparent KD of MS2 coat protein” value was 0.345 µM (input ligand: FMN 200 uM), 0.0925 µM under setting [1] and 0.166 µM (input ligand: none).
In the same order, the values of “AAUUAAUUAAUUAAUAUACAUGAGGAUCACCCAUGUAAGAUCAAGGAUAUCAGCUCGUUUAGAGCUGAGAAGGUGAUCACAUGU [SSNG3/16-A3] (Eterna round: R96, puzzle: Same State NG 3)” are 0.447 µM, 0.156 µM and 0.302 µM.
Consider “AAUUAUUAACAUGAGGAUCACCCAUGUAUCAUGAUUACUAUUAUUAGUAUCAUGAAUAGGGUUUUUGCUCGUCUUAU [ben_bell_2] (puzzle: Sensor for hsa-mir-208a version 2)”, for which the “apparent KD of MS2 coat protein” value under setting [2] worked out at 0.0859 µM, the “apparent KD of MS2 coat protein” value under setting [3] came out at 0.0262 µM and the “apparent KD of MS2 coat protein” value under setting [4] was 0.0535 µM.
Consider “AAUUAUUAACAUGAGGAUCACCCAUGUAUUACUUCAUGUUUUUGCUCGUCUAUUAUUAUUAUUAUUAUUAUUAUUAA [Most simple design] (puzzle: Sensor for hsa-mir-208a version 2)”, for which the “apparent KD of MS2 coat protein” value under setting [2] was determined as 0.282 µM, the “apparent KD of MS2 coat protein” value under setting [3] was found to be 0.0401 µM and the “apparent KD of MS2 coat protein” value under setting [4] stood at 0.34 µM.
In the same order, the values of “AAUUAUUAACAUGAGGAUCACCCAUGUAUUUAUGUUAGUAUCUAACAUAGUCUUAUUAAGCUUUGUGAUUGUCUUAU [Cole's First Solution] (puzzle: Sensor for hsa-mir-208a version 2)” are 0.0298 µM, 0.0326 µM and 0.0388 µM.
The corresponding values for “AAUUAUUAACAUGAGGAUCACCCAUGUGUUUUUGGGCUCGUUUUAUUUAUUAUUAUUAUUAUUAUUAUUAUUAUUAA [SB switch1] (puzzle: Sensor for hsa-mir-208a version 2)” are 0.0853 µM, 0.0691 µM and 0.154 µM.
In the same order, the values of “AAUUAUUAACAUGAGGAUCACCCAUGUGUUUUUUGCUCGUCAUGUAUUAUUAUUAUUAUUAUUAUUAUUAUUAUUAA [my second RNA] (puzzle: Sensor for hsa-mir-208a version 2)” are 0.0419 µM, 0.0188 µM and 0.0524 µM.
